Assays:
[1] = biological target: T1, 3x syn. clamp (three-PDZ clamp, nc=3); assay: cell-based or functional assay
T1 chain: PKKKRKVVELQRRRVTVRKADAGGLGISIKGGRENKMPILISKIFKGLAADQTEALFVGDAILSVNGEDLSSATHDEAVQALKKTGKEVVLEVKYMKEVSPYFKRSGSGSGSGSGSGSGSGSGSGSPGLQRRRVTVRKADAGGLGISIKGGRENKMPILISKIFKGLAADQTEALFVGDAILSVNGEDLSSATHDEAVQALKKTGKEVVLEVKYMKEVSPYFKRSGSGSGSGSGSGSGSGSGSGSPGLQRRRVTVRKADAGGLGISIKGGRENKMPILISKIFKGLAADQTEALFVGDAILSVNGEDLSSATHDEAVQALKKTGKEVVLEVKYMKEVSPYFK

[2] = biological target: T2, 2x syn. clamp (two-PDZ clamp, nc=2); assay: cell-based or functional assay
T2 chain: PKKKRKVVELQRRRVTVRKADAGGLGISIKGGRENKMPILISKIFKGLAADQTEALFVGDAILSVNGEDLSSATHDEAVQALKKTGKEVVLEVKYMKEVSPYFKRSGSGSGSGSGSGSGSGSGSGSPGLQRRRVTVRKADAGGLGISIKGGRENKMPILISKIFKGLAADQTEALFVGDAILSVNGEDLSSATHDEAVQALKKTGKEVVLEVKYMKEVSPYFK

B1: MBP-43-8(low)-syn. lig.(S5), ligand VKESLV (other, not shown: large carriers)
chain: GEAPFQCRICMANFSRQDRLDRHTRTHTGEKPFQCRICMANFSQKEHLAGHLRTHTGEKPFQCRICMANFSRRDNLNRHLKTHLRGSGSGVKESLV
EC50 of synTF titration on nc=3 DBM oligo probe (fluorescence anisotropy) in the presence of three-PDZ clamp [1]: 5.1 nM | EC50 of synTF titration on nc=2 DBM oligo probe (fluorescence anisotropy) in the presence of clamp [2]: 18 nM
